Experiments:
[1] = biological target: T1, empty phage T5 capsid, undecorated, produced from the mutant phage T5stAmN5-Δdec (bacteriophage T5, UniProt Q6QGD8 160-458; Q6QGD5 11-403); assay: native agarose gel retardation, [protein]/[binding sites on the capsid] = 1+/-0.1
T1 construct: devoid of DNA and of pb10, expanded form; also called empty capsids; pure empty capsids
T1 sequence 1: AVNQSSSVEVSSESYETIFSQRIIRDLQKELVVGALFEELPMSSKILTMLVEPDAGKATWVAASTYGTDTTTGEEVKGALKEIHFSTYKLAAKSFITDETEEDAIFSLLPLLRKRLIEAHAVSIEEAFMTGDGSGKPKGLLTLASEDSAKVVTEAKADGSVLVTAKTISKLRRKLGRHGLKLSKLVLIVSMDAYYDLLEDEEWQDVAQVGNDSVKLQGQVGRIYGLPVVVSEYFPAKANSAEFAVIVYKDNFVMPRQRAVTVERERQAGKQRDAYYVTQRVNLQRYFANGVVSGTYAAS
T1 sequence 2: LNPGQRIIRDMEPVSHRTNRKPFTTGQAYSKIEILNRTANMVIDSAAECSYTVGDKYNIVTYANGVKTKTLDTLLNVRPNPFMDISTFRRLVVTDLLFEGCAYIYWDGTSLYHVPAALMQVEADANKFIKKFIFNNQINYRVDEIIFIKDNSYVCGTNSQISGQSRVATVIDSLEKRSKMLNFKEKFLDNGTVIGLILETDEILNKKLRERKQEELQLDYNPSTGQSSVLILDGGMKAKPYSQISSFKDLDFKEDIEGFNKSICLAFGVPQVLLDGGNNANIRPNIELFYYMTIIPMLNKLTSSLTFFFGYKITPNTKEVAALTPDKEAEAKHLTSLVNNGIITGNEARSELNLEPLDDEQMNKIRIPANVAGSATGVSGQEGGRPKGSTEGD

[2] = biological target: T2, empty phage T5 capsid, undecorated, produced from the mutant phage T5stAmN5-Δdec (UniProt Q6QGD8 160-458; Q6QGD5 11-403); assay: SPR
T2 chain 1: T1 sequence 1
T2 chain 2: T1 sequence 2

[3] = biological target: T3, recombinant phage T5 capsid produced from plasmid pETcapT5Δdec (assembled in the absence of pb10) (bacteriophage T5, UniProt Q6QGD8 160-458; Q6QGD5 11-403); assay: native agarose gel retardation
T3 construct: also called capsids produced from the plasmid pETcapT5Δdec; pETcapT5Δpb10 capsids
T3 sequence 1: T1 sequence 1
T3 sequence 2: T1 sequence 2

[4] = biological target: T2, empty phage T5 capsid, undecorated, …; assay: SPR; 25 °C

B1: decoration protein pb10 of phage T5 (other)
chain: MGIDYSGLRTIFGEKLPESHIFFATVAAHKYVPSYAFLRRELGLSSAHTNRKVWKKFVEAYGKAIPPAPPAPPLTLSKDLTASMSVEEGAALTLSVTATGGTGPYTYAWTKDGSPIPDASGATYTKPTAAAEDAGSYKVTVTDSKQVSKDSTTCAVTVNPTVPGGLE
notes: Monomeric; also called native protein pb10; pb10 H6
binding result [1]: binds
Kd [2]: 1.11 pM
binding result [3]: binds
Kd [4]: 2.25 pM

B2: pb10-OVAH6 (whole protein pb10 fused with ovalbumin, His-tagged) (other)
chain: MGIDYSGLRTIFGEKLPESHIFFATVAAHKYVPSYAFLRRELGLSSAHTNRKVWKKFVEAYGKAIPPAPPAPPLTLSKDLTASMSVEEGAALTLSVTATGGTGPYTYAWTKDGSPIPDASGATYTKPTAAAEDAGSYKVTVTDSKQVSKDSTTCAVTVNPTVPGGMGSIGAASMEFCFDVFKELKVHHANENIFYCPIAIMSALAMVYLGAKDSTRTQINKVVRFDKLPGFGDSIEAQCGTSVNVHSSLRDILNQITKPNDVYSFSLASRLYAEERYPILPEYLQCVKELYRGGLEPINFQTAADQARELINSWVESQTNGIIRNVLQPSSVDSQTAMVLVNAIVFKGLWEKAFKDEDTQAMPFRVTEQESKPVQMMYQIGLFRVASMASEKMKILELPFASGTMSMLVLLPDEVSGLEQLESIINFEKLTEWTSSNVMEERKIKVYLPRMKMEEKYNLTSVLMAMGITDVFSSSANLSGISSAESLKISQAVHAAHAEINEAGREVVGSAEAGVDAASVSEEFRADHPFLFCIKHIATNAVLFFGRCVSP
Kd [4]: 2.34 pM

B3: pb10N-Ter-OVAH6 (N-terminal domain of pb10 fused with ovalbumin, His-tagged) (other)
chain: MGIDYSGLRTIFGEKLPESHIFFATVAAHKYVPSYAFLRRELGLSSAHTNRKVWKKFVEAYGKAIPPAPPAPPMGSIGAASMEFCFDVFKELKVHHANENIFYCPIAIMSALAMVYLGAKDSTRTQINKVVRFDKLPGFGDSIEAQCGTSVNVHSSLRDILNQITKPNDVYSFSLASRLYAEERYPILPEYLQCVKELYRGGLEPINFQTAADQARELINSWVESQTNGIIRNVLQPSSVDSQTAMVLVNAIVFKGLWEKAFKDEDTQAMPFRVTEQESKPVQMMYQIGLFRVASMASEKMKILELPFASGTMSMLVLLPDEVSGLEQLESIINFEKLTEWTSSNVMEERKIKVYLPRMKMEEKYNLTSVLMAMGITDVFSSSANLSGISSAESLKISQAVHAAHAEINEAGREVVGSAEAGVDAASVSEEFRADHPFLFCIKHIATNAVLFFGRCVSP
Kd [4]: 1.22 pM
